These results are taken from PMC11761773.

In the test the target is Fc-binding nanodisc F-ND_(P2N2), made with F-MSP2N2. Put plainly: SEC. (SEC sorts molecules by how far they enter the pores of the column.)

The stoichiometry N is a count of units in the complex or per binding partner. The substance immunoglobulin G (IgG) (antibody) displayed a stoichiometry N of 1 molar ratio.
